The source of these data is US20070014720A1.

The target in test [1] is human CD20 (human) (UniProt P11836). Kind of test: FACS KD on SB cells expressing CD20 (GMF against mAb concentration, nonlinear fit).
The target is the same in test [2]. Kind of test: cell-based or functional assay.

human CD20 (human), sequence (P11836 whole entry): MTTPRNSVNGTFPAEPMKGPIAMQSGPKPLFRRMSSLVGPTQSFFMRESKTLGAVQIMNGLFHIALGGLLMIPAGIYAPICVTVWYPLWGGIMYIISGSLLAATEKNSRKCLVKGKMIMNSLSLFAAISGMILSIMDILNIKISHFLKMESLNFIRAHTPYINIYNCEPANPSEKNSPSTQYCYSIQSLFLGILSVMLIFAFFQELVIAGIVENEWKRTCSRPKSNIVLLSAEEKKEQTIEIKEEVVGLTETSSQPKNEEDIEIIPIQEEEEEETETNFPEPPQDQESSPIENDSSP

For orientation: Kd means the equilibrium constant for the complex coming apart. High values mean a looser complex, low ones a tighter complex. For the substance “Rituxan (Rituximab, Genentech Inc.) (antibody)”, the Kd in test [1] came out at 0.0081 µM. Further, in test [2], the % Lysis Daudi 0.001 µg/ml ADCC was determined as 33%, the % Lysis Daudi 1 µg/ml ADCC came to 95%, the % Lysis Raji 0.001 µg/ml ADCC was 16% and the % Lysis Raji 1 µg/ml ADCC stood at 62%. In test [2], this substance yielded a % Lysis Ramos 0.001 µg/ml ADCC of 5%, a % Lysis Ramos 1 µg/ml ADCC of 78%, an EC50 µg/ml Daudi CDC of 1.56 µg/mL and an EC50 µg/ml Raji CDC of 0.31 µg/mL. Further, in test [2], the EC50 µg/ml Ramos Apoptosis Alamar Blue came to 0.222 µg/mL, the EC50 µg/ml Ramos Apoptosis Annexin V is 2.59 µg/mL, the EC50 µg/ml Ramos Apoptosis Cell Titer Glo was 0.576 µg/mL and the EC50 µg/ml Ramos Apoptosis WST-1 came to 0.0326 µg/mL. This substance also registered an EC50 µg/ml Ramos CDC in test [2] of 0.43 µg/mL.
For “B1 antibody (Beckman Coulter, Miami, Fla.)”, in test [1], the Kd was determined as 0.0341 µM.
